Results on three molecules are retold here after article PMC8359418, “Genome‐wide analysis of in vivo CcpA binding with and without its key co‐factor HPr in the major human pathogen group A Streptococcus” (Molecular Microbiology, 2020).

The target in test [1] is recombinant GAS CcpA with V301A change (group A Streptococcus (Streptococcus pyogenes)). Put plainly: SPR; CcpA (3,700 RU) or CcpAV301A (4,200 RU) immobilised on CM5 by amine coupling; HPr or HPrSer46~P injected, 2-fold dilutions 1.25 to 80 uM; PBS pH 7.4, 25°C; steady-state responses fitted to a one-site binding model; BIAcore T200. For orientation: SPR reads the build-up and loss of mass on a sensor chip optically.

Test [2] concerns the target recombinant wild type GAS CcpA (catabolite control protein A) (group A Streptococcus (Streptococcus pyogenes)). Described as above.
Test [3] addresses T1, CcpA endogenous in GAS strain MGAS2221 (Streptococcus pyogenes (endogenous in …, UniProt Q9A118 1-333)).
T1 construct: Catabolite control protein A (CcpA) of Streptococcus pyogenes serotype emm1 strain MGAS2221 (gene content identical to MGAS5005); also called wild type CcpA; source: endogenous, lysate of cross-linked MGAS2221 cells
The test can be described thus: co-IP; GAS strains grown to mid-exponential phase in THY, cross-linked with EGS and formaldehyde, sonicated; precipitated with polyclonal anti-CcpA antibody, Western blot with anti-HPr antibody, quantified (Odyssey). The conditions noted are these: partners not purified. On the technique in general: Immunoblotting shows a protein as a band on a membrane.

On to “recombinant GAS HPr phosphorylated at Ser46 (natural protein)”, for which the Kd in test [1] turned out to be 153 µM; in test [2], 5.8 µM.
Consider “recombinant GAS HPr (histidine-containing protein), unphosphorylated (natural protein)”, for which the Kd in test [2] worked out at 188 µM.

B1: HPr endogenous in GAS strains MGAS2221 and 2221-CcpA-V301A (natural protein)
chain: MASKDFHIVAETGIHARPATLLVQTASKFASDITLDYKGKAVNLKSIMGVMSLGVGQGADVTISAEGADAEDAIAAIEETMTKEGLA
notes: Phosphocarrier protein HPr (ptsH) of Streptococcus pyogenes serotype emm1 strain MGAS2221 and its isoallelic derivative; Detected with an anti-HPr antibody; the phosphorylation state of the co-precipitated HPr was not determined (by Phos-tag gels most cellular HPr was unphosphorylated); also called HPr~P; source: endogenous, lysates of cross-linked MGAS2221 and 2221-CcpA-V301A cells
In the case of B1, in test [3], the “fold more HPr co-immunoprecipitated than from strain 2221-CcpA-V301A” value was 10 fold.

One may read the Kd as the constant that tells how readily two partners part at equilibrium.
